The experiment addresses T1, CHIKV E2 protein (Chikungunya virus, UniProt Q8JUX5).
T1 construct: incubated with varying concentrations of biotin conjugated CHIKV E2 protein
T1 sequence (Q8JUX5 326-748 limits assumed): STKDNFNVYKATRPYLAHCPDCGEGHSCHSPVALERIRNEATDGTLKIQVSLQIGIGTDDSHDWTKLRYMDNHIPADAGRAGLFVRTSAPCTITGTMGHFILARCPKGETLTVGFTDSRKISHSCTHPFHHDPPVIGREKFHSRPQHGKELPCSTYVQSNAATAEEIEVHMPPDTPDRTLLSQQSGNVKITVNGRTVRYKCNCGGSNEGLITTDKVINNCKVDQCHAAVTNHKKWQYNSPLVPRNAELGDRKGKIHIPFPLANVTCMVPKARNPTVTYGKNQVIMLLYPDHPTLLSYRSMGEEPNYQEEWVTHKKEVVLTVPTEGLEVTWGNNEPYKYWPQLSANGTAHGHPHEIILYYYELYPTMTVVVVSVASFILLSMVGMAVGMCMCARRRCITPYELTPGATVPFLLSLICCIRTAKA
Put plainly: LUMINEX binding assay (sandwich-type) of bead-attached capture agents with biotin conjugated CHIKV E2 protein. As to conditions: for EC50: FIG. 9. As to the method:
Referring to FIG. 4, the binding performance of each capture agent is determined using a LUMINEX® binding assay, which is essentially the same as a sandwich-type ELISA, where the peptides are attached to a bead as a one-arm polyethylene glycol (PEG) or three-arm PEG construct. By allowing these beads to interact with varying concentrations of the CHIKV E2 protein, one can determine and compare the binding performance of each capture agent construct. A smaller value of the variable on the horizontal axis at the inflection point of a given plot for a corresponding capture agent indicates stronger binding for the corresponding capture agent with respect to the target protein or target molecule.
Referring to FIG. 4, the assay for an illustrative example was performed on a LUMINEX® 200 instrument. LUMINEX®'s xMAP technology drives multiplexed assay capabilities by combining fluidics, optics, and digital signal processing with microsphere technology. The LUMINEX® 200 is capable of testing up to 100 analytes simultaneously from a single sample and is the leading multiplex immunoassay technology. In general, the color-coded microspheres are the substrate on which the solution phase assays are performed, where a specific microsphere color corresponds to an individual receptor attached to the microsphere surface.
In one illustrative example, 6 separate microsphere regions were first functionalized with a single arm polyethlyglycine (PEG) azide molecule. Each microsphere region was then reacted with an individual, alkyne-functionalized cyclic peptide (with the sequence WIYYI, IYLRY, YWHWS, FWQIL), or an equal combination of all sequences (noted as “polyclonal”). As a control, polyclonal Anti-E2 antibody was attached to a bead region for performance comparison against the peptide constructs. In an analogous experiment, the exact same process was repeated, except the single arm PEG azide molecule was switched to a 3-arm PEG azide molecule.
The details of some of the synthesis and experimental techniques useful in the embodiments herein can be found in United States Patent Application Publication No. US 2017/0349754 A1, by Matthew B. Coppock, published Dec. 7, 2017, M. B. Coppock et al., “A novel discovery, maturation, and assay integration approach for the development of ruggedized multi-valent capture receptors exemplified against the chikungunya virus E2 protein,” Sensing and Bio-Sensing Research 22 (2019) 100248, and M. B. Coppock, D. N. Stratis-Cullum, “A universal method for the functionalization of dyed magnetic microspheres with peptides,” Methods 158 (2019) 12-16, all of which, including their supplemental parts and appendices, are incorporated by reference herein in their entirety. […]

Like-named read-outs stand apart in the source and are kept apart here.

Take “WIYYI (chains of the parent or of the whole protein)”: the 50% effective concentration (EC50) – broadly, the concentration giving half of the maximal effect – reads like this: (heated at 90° C. for 1 hr before assay, read-out: EC50 (binding activity for CHIKV E2) after heating) 0.245 ± 0.005 nM; (unheated control, LUMINEX assay, read-out: EC50 (binding activity for CHIKV E2) before heating) 0.232 ± 0.006 nM.

On to WIYYI, for which, where the note is “heated at 90° C. for 1 hr, result in words”, the “binding activity remaining after heating” value is given as “no loss in binding activity”. Besides, the “binding performance compared to commercially available antibody raised against E2” value (multi-arm constructs, result in words) is given as “outperform the antibody”.

Source of the values: US11613746B2, “Methods for developing virus protein specific capture agents, capture agents, and methods of using the capture agents” (priority 2019, dated 2023).
